According to patent US10251926B2, “Extract from indigo naturalis and a process for preparing the same” (Galderma S.A., priority 2015, dated 2019):

B1: IL-22: Recombinant mouse IL-22, intradermal inducer of ear inflammation (protein, UniProt Q9JJY9 34-179, looked up)
Interleukin-22: LPVNTRCKLEVSNFQQPYIVNRTFMLAKEASLADNNTDVRLIGEKLFRGVSAKDQCYLMKQVLNFTLEDVLLPQSDRFQPYMQEVVPFLTKLSNQLSSCHISGDDQNIQKNVRRLKETVKKLGESGEIKAIGELDLLFMSLRNACV

Key:
[1] = system: HaCaT; assay: HaCaT proliferation, MTT assay; format: cell-based; conditions: Homo sapiens, 72 hours, unit nM
Protocol: HaCaT, a human epidermal keratinocyte line from The Second Military Medical University (SMMU), China, was cultured in DMEM containing 10% FBS.
HaCaT were seeded in 96-well plates at 4×10^4 cells/well overnight. Stausporine or test articles were then added into the culture and incubated at 37° C., 5% CO2 for 72 hours. After removal of the media, the cells in 96-well plates were exposed to 100 μL of MTT (0.5 mg/mL in DMEM containing 10% FBS per well and incubated for 3 hours at 37° C., 5% CO2. Subsequently, the supernatants were removed and 150 μL of DMSO were added to each well. The plate was incubated in the dark for 10 minutes and the absorbance at 492 nm was recorded immediately using Multiskan MK3microplate reader (Thermo Life Sciences, HK, China).
All IC50 values were determined by using Xlfit™ software (version 2.0) from ID
Background was defined in culture with cells treated with DMSO only and was subtracted for IC50 calculations.

[2] = system: ears of mice; assay: Ear inflammation after intradermal injection of IL-22 (study 1, establishment of model); format: in vivo, BABL/c mice
Protocol: FIG. 3: Group and dosing for in vivo evaluation of extracts from Qingdai in IL-22 induced psoriasis model. Five studies were designed and outlined in study 1-5, respectively. In Study 1, 100 ng and 500 ng of IL-22 in 20 μL saline, i.d., were used for induction. In study 2-5, 500 ng of IL-22 in […], i.d., were used for induction.
FIG. 4: Figures illustrate ear inflammation after intradermal injection of IL-22. In the studies, ears of mice were injected intradermally and ear thickness was measured on days between injections.
BABL/c mice, male, body weight 19-22 g, purchased from Shanghai SLC AnimalCenter.
Intradermal injection of 20 μL PBS, either alone or containing 100 or 500 ng recombinant mouse IL-22 (eBiosience), was administered into the ears of anesthetized mice using a 30-gauge needle every other day for eleven days. Ear thicknesses were measured before injection on day 0 and thereafter on days without injections. Ear measurements were taken at the center of the ears using a digimatic micrometer caliper (Mitutoyo).
Results of ear thickness data were expressed as mean±S.E.M. AUC of ear swelling was calculated by the ear thickness data from day 0 to day 11, and analyzed by repeated-measured ANOVA methods with JMP® software. Cytokine protein and gene expression data were evaluated with a one-way ANOVA and followed by student's t-test for post-hoc analysis. […]

Molecule	IC50 [1] [nM]	ear thickness (d 15) ([2]; study 1, IL-22 100 ng in 20 μL saline i.d., day 15) [μm]	ear thickness (d 15) ([2]; study 1, IL-22 500 ng in 20 μL saline i.d., second value of the cell, day 15 as in the lines above) [μm]
CN[C@@H]1C[C@H]2O[C@@](C)([C@@H]1OC)n1c3ccccc3c3c4c(c5c6ccccc6n2c5c31)C(=O)NC4 [Staurosporine]	3.18		
B1		255.3 ± 15.1	296.3 ± 5.0
